T1: Sla1-2, P32790
T1 sequence (P32790 60-140, looked up): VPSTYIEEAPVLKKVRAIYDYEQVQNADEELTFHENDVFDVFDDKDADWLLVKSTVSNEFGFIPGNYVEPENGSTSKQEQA

T2: Bzz1-1, P38822
T2 sequence (P38822 478-572, looked up): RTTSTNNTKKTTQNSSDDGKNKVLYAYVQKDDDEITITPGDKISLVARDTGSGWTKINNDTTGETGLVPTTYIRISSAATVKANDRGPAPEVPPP

T3: Boi1, P38041
T3 sequence (P38041 1-86, looked up): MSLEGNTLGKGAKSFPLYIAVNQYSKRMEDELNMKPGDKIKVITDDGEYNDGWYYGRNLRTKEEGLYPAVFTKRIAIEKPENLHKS

T4: Bbc1, P47068
T4 sequence (P47068 1-78, looked up): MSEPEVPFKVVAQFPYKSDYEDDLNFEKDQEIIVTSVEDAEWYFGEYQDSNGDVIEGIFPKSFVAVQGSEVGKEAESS

T5: Lsb3, P43603
T5 sequence (P43603 385-451, looked up): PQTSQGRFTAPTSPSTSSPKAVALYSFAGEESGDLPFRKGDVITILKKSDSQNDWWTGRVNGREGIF

T6: Myo5, Q04439
T6 sequence (Q04439 1072-1160, looked up): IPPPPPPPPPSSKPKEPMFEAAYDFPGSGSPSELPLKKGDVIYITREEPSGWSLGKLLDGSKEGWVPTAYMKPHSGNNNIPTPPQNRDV

T7: Bzz1-2, P38822
T7 sequence (P38822 568-633, looked up): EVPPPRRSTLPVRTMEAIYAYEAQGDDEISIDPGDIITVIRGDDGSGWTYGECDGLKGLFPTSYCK

T8: Cdc25, P04821
T8 sequence (P04821 50-136, looked up): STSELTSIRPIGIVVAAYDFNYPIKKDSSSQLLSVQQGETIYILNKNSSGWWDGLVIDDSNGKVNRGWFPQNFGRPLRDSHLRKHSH

T9: Sla1-3, P32790
T9 sequence (P32790 344-424, looked up): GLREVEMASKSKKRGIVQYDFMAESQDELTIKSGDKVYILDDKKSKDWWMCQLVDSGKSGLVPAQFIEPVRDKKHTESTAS

T10: Bud14, P27637
T10 sequence (P27637 247-328, looked up): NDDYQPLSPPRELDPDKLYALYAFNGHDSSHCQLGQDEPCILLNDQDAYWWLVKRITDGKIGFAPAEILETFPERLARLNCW

T11: Pex13, P80667
T11 sequence (P80667 295-386, looked up): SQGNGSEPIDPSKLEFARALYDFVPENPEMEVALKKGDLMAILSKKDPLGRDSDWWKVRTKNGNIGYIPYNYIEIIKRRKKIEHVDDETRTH

T12: Nbp2, Q12163
T12 sequence (Q12163 103-180, looked up): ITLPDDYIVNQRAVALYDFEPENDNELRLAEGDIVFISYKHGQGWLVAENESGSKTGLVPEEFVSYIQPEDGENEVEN

T13: Cyk3, Q07533
T13 sequence (Q07533 1-83, looked up): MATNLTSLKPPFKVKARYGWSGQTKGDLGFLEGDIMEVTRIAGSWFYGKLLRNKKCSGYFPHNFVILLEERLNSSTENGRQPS

T14: Boi2, P39969
T14 sequence (P39969 32-116, looked up): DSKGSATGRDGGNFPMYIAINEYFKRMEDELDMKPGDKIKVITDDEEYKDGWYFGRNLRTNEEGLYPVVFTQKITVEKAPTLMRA

T15: Hof1, Q05080
T15 sequence (Q05080 590-669, looked up): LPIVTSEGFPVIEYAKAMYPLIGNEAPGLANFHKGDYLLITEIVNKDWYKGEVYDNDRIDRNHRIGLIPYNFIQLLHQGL

T16: Hse1, P38753
T16 sequence (P38753 208-285, looked up): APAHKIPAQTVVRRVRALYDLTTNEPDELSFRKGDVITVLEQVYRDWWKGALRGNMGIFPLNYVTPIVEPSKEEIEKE

T17: Fus1, P11710
T17 sequence (P11710 432-512, looked up): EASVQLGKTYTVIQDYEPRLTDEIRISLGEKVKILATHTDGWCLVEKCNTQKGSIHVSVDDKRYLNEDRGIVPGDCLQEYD

T18: Lsb4, P32793
T18 sequence (P32793 402-468, looked up): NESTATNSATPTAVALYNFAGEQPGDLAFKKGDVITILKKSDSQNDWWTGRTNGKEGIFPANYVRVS

T19: Pin3, Q06449
T19 sequence (Q06449 53-122, looked up): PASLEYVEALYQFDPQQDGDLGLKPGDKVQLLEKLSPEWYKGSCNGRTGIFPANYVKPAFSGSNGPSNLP

T20: Abp1, P15891
T20 sequence (P15891 535-592, looked up): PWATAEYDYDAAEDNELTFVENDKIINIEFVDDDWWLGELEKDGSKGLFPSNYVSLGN

T21: Lsb1, P53281
T21 sequence (P53281 45-122, looked up): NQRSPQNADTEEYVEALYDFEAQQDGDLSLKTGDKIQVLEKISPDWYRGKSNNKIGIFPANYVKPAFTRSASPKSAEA


Experiments:
Assay in all cases: SPOT array
Sla1-2, P32790 = biological target: T1, Sla1-2, P32790; details: median of control spots 712
Bzz1-1, P38822 = biological target: T2, Bzz1-1, P38822; details: median of control spots 4446
Bem1-2, P29366 = details: median of control spots 4347
Boi1, P38041 = biological target: T3, Boi1, P38041; details: median of control spots 1162
Sho1, P40073 = details: median of control spots 1148
Bbc1, P47068 = biological target: T4, Bbc1, P47068; details: median of control spots 796
Lsb3, P43603 = biological target: T5, Lsb3, P43603; details: median of control spots 406
GST = details: median of control spots 978
Myo5, Q04439 = biological target: T6, Myo5, Q04439; details: median of control spots 471
Bzz1-2, P38822 = biological target: T7, Bzz1-2, P38822; details: median of control spots 4538
Cdc25, P04821 = biological target: T8, Cdc25, P04821; details: median of control spots 969
Sla1-3, P32790 = biological target: T9, Sla1-3, P32790; details: median of control spots 5475
Bud14, P27637 = biological target: T10, Bud14, P27637; details: median of control spots 956
Pex13, P80667 = biological target: T11, Pex13, P80667; details: median of control spots 1341
Nbp2, Q12163 = biological target: T12, Nbp2, Q12163; details: median of control spots 357
Cyk3, Q07533 = biological target: T13, Cyk3, Q07533; details: median of control spots 1451
Rvs167, P39743 = details: median of control spots 2707
Boi2, P39969 = biological target: T14, Boi2, P39969; details: median of control spots 1161
Myo3, P36006 = details: median of control spots 468
Hof1, Q05080 = biological target: T15, Hof1, Q05080; details: median of control spots 4086
Bem1-1, P29366 = details: median of control spots 4282
Hse1, P38753 = biological target: T16, Hse1, P38753; details: median of control spots 1727
Fus1, P11710 = biological target: T17, Fus1, P11710; details: median of control spots 1200
Lsb4, P32793 = biological target: T18, Lsb4, P32793; details: median of control spots 397
Pin3, Q06449 = biological target: T19, Pin3, Q06449; details: median of control spots 2171
Abp1, P15891 = biological target: T20, Abp1, P15891; details: median of control spots 935
Lsb1, P53281 = biological target: T21, Lsb1, P53281; details: median of control spots 388

Sequence of Bem1-1, P29366 (P29366 55-141): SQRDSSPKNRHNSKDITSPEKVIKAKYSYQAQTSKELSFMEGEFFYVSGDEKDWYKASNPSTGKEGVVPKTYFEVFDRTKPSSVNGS
Sequence of Sho1, P40073 (P40073 287-367): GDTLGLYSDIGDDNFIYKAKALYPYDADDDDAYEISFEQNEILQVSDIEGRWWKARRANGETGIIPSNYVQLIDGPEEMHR
Sequence of Rvs167, P39743 (P39743 419-482): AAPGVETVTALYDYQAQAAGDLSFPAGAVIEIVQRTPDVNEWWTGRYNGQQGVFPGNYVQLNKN
Sequence of Bem1-2, P29366 (P29366 139-227): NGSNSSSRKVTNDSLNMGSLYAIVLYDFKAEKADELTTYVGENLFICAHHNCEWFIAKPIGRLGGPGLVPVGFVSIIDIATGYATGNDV

Binder | SPOT intensity (Sla1-2, P32790) | SPOT intensity (Bzz1-1, P38822) | SPOT intensity (Bem1-2, P29366) | SPOT intensity (Boi1, P38041) | SPOT intensity (Sho1, P40073) | SPOT intensity (Bbc1, P47068) | SPOT intensity (Lsb3, P43603) | SPOT intensity (GST) | SPOT intensity (Myo5, Q04439) | SPOT intensity (Bzz1-2, P38822) | SPOT intensity (Cdc25, P04821) | SPOT intensity (Sla1-3, P32790) | SPOT intensity (Bud14, P27637) | SPOT intensity (Pex13, P80667) | SPOT intensity (Nbp2, Q12163) | SPOT intensity (Cyk3, Q07533) | SPOT intensity (Rvs167, P39743) | SPOT intensity (Boi2, P39969) | SPOT intensity (Myo3, P36006) | SPOT intensity (Hof1, Q05080) | also measured
NILKRRPLKLEAPSK | 0 | 2 | 0 | 7 | 65 | 272 | 0 | 0 | 0 | 18 | 297 | 28 | 19 | 2 | 0 | 4 | 0 | 3 | 4 | 14 | SPOT intensity (Bem1-1, P29366): 0; SPOT intensity (Hse1, P38753): 302; SPOT intensity (Fus1, P11710): 37; SPOT intensity (Lsb4, P32793): 1; SPOT intensity (Pin3, Q06449): 1; SPOT intensity (Abp1, P15891): 92; SPOT intensity (Lsb1, P53281): 2
FSRRQSMDIPSKNRN | 27 | 1 | 0 | 0 | 60 | 7 | 22 | 1 | 83 | 26 | 16 | 1 | 6 | 61 | 2 | 0 | 0 | 1 | 44 | 0 | SPOT intensity (Bem1-1, P29366): 7; SPOT intensity (Hse1, P38753): 8; SPOT intensity (Fus1, P11710): 0; SPOT intensity (Lsb4, P32793): 84; SPOT intensity (Pin3, Q06449): 195; SPOT intensity (Abp1, P15891): 127; SPOT intensity (Lsb1, P53281): 200
NMLSRPRLAKLPSIR | 1 | 0 | 18 | 5 | 38 | 54 | 2 | 0 | 11 | 11 | 108 | 25 | 33 | 21 | 0 | 1 | 0 | 2 | 9 | 178 | SPOT intensity (Bem1-1, P29366): 0; SPOT intensity (Hse1, P38753): 216; SPOT intensity (Fus1, P11710): 12; SPOT intensity (Lsb4, P32793): 10; SPOT intensity (Pin3, Q06449): 40; SPOT intensity (Abp1, P15891): 42; SPOT intensity (Lsb1, P53281): 59
NNNKMRPHLPPLSSG | 0 | 1 | 16 | 3 | 61 | 0 | 1 | 0 | 7 | 62 | 22 | 0 | 35 | 84 | 12 | 0 | 0 | 0 | 18 | 1460 | SPOT intensity (Bem1-1, P29366): 1; SPOT intensity (Hse1, P38753): 24; SPOT intensity (Fus1, P11710): 1; SPOT intensity (Lsb4, P32793): 22; SPOT intensity (Pin3, Q06449): 85; SPOT intensity (Abp1, P15891): 59; SPOT intensity (Lsb1, P53281): 81
